The test system of one data set is VASH1 full-length 44 kDa. Put plainly: SPR. Particulars: single-cycle kinetics; HBS-EP: 10 mM Hepes pH 7.4, 150 mM NaCl, 3 mM EDTA, 0.005% surfactant P20 (stated for immobilization); SA chip, Biacore T200, protein 16.25-300 nM, 1:1 ….
The test system of data set [1] is VASH1 27-kDa N-terminal part-GST. Put plainly: SPR. Particulars: HBS-EP: 10 mM Hepes pH 7.4, 150 mM NaCl, 3 mM EDTA, 0.005% surfactant P20 (stated for immobilization); SA chip, Biacore T200, protein 16.25-300 nM, 1:1 ….

As a reminder, the Kd is the concentration at which binding is half-saturated. EMCV IRES displayed a dissociation constant (Kd) with VASH1 full-length 44 kDa of 9.6 nM.

Turning to VEGFAa IRES, the Kd with VASH1 full-length 44 kDa came out at 8 nM.

On to FGF1 IRES, for which the Kd in data set [1] turned out to be 2800 nM; in the data set on VASH1 full-length 44 kDa it was 6.5 nM.
